Where a chain is given by its changes, count along the chain named. In names and notes the source's numbering stands.
T1: TAFV GP on VSV pseudotype particles (Tai Forest virus (TAFV), UniProt Q66810 33-676)
T1 sequence: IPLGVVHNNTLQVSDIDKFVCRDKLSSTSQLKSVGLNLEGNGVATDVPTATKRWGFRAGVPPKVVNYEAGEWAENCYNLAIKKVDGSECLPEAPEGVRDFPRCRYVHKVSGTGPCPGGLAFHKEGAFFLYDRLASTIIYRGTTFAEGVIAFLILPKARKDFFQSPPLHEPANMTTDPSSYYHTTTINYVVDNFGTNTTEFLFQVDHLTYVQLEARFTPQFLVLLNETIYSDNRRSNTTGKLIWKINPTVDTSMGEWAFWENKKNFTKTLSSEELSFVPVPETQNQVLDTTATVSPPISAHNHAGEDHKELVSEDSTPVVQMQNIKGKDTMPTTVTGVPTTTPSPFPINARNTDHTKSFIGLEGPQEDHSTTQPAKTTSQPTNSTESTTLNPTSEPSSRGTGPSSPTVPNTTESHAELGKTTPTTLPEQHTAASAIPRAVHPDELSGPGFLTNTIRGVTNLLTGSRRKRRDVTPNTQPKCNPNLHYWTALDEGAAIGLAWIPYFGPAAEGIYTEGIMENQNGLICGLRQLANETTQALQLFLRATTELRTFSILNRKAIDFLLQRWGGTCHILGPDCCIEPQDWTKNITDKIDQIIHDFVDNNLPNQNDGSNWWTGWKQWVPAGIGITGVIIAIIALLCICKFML

T2: EBOV GP on rVSV particles (Ebola virus (EBOV), UniProt Q05320 33-676)
T2 sequence: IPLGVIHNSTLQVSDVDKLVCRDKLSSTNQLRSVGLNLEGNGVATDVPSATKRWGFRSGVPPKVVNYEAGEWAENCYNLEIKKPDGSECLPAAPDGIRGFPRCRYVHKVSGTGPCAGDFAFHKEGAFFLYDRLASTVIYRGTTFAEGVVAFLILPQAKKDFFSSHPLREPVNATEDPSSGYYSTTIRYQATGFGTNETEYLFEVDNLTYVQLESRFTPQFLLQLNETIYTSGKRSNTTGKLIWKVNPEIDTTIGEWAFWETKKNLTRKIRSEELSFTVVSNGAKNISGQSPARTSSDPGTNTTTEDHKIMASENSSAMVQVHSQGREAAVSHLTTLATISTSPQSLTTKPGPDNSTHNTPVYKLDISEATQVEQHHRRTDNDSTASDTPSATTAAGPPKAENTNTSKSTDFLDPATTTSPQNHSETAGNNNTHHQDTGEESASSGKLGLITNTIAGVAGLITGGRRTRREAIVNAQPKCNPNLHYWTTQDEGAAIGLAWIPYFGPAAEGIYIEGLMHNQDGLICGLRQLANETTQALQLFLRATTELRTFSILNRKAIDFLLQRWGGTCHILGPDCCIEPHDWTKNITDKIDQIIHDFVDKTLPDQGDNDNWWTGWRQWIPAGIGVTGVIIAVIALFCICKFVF

T3: RESTV GP on rVSV particles (Reston virus (RESTV), UniProt Q66799 34-677)
T3 sequence: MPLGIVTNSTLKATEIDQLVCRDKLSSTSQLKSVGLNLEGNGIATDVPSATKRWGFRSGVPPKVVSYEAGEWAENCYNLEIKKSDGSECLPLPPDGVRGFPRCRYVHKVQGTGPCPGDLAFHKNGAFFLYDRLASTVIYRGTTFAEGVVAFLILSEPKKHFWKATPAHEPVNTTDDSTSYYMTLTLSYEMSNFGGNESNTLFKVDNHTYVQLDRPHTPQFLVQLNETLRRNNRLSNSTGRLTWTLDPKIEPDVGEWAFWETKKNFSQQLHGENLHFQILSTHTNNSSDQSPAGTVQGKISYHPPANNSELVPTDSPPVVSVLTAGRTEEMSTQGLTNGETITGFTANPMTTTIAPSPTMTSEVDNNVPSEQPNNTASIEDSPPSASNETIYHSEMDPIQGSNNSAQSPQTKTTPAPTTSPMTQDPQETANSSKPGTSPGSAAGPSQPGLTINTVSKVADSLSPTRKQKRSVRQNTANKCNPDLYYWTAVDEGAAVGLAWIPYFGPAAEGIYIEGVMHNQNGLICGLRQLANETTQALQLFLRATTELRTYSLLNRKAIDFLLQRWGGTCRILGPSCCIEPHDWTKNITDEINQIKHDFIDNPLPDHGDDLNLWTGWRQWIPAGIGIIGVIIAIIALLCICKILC

T4: SUDV GP on rVSV particles (Sudan virus (SUDV), UniProt Q66814 33-676)
T4 sequence: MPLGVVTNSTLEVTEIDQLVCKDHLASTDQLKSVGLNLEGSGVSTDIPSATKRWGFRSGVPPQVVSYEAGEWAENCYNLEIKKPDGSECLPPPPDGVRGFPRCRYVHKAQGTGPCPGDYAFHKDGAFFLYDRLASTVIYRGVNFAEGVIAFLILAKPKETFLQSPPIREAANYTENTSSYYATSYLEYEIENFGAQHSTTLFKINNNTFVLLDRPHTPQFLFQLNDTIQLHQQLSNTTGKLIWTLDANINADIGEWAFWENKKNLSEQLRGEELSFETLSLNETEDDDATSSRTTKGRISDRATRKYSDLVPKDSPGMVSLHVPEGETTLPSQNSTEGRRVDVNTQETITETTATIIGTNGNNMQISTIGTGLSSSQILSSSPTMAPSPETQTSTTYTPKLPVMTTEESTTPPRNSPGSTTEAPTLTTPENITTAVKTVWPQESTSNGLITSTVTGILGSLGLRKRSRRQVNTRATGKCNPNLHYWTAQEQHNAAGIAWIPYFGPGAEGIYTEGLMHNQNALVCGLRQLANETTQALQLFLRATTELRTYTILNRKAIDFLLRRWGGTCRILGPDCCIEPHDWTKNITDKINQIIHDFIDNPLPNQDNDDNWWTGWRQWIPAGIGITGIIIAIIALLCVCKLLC

B1: PE-87 D99A (antibody, V domains shown)
VH: QVQLVQSGVTLVQPGGSLRVSCAASGFTFSSYAMSWVRQAPGKGLEWVSAISGLGGSTYYADSVKGRFTISRDNSKNTLYLQMNSLRAEDTAVYYCAKAHRVWAAGYHFDYWGQGALVTVSS
VL: DIVLTQSPSTLSASVGDRVTITCRASQSISSWLAWYQQKPGEAPKLLISDASSLESGVPSRFSGSGSGTEFTLTISSLQPDDFATYYCQQYYSSPTFGGGTKVEIK
B2: PE-87 H100A (antibody, V domains shown)
VH: B1 VH with A99D, H100A
VL: B1 VL
B3: PE-87 R101A (antibody, V domains shown)
VH: B1 VH with A99D, R101A
VL: B1 VL
B4: PE-87 Y107A (antibody, V domains shown)
VH: B1 VH with A99D, Y107A
VL: B1 VL
B5: PE-87 H108A (antibody, V domains shown)
VH: B1 VH with A99D, H108A
VL: B1 VL
B6: PE-87 V102A (antibody, V domains shown)
VH: B1 VH with A99D, V102A
VL: B1 VL
B7: PE-87 F109A (antibody, V domains shown)
VH: B1 VH with A99D, F109A
VL: B1 VL
B8: PE-87 G106A (antibody, V domains shown)
VH: B1 VH with A99D, G106A
VL: B1 VL
B9: PE-87 D110A (antibody, V domains shown)
VH: B1 VH with A99D, D110A
VL: B1 VL
B10: PE-87 W103A (antibody, V domains shown)
VH: B1 VH with A99D, W103A
VL: B1 VL
B11: PE-87 Y111A (antibody, V domains shown)
VH: B1 VH with A99D, Y111A
VL: B1 VL

Assays:
Experiment in all cases: cell-based or functional assay
[1] = target: T1, TAFV GP on VSV pseudotype particles
[2] = target: T2, EBOV GP on rVSV particles
[3] = target: BDBV GP on rVSV particles (Bundibugyo virus (BDBV))
[4] = target: T3, RESTV GP on rVSV particles
[5] = target: T4, SUDV GP on rVSV particles

Binder	IC50 (nM), neutralization of rVSV-GP [1]	IC50 (nM), neutralization of rVSV-GP [2]	IC50 (nM), neutralization of rVSV-GP [3]	IC50 (nM), neutralization of rVSV-GP [4]	IC50 (nM), neutralization of rVSV-GP [5]
B1	> 350 nM	> 500 nM	–	–	–
B2	0.8 nM	1 nM	0.4 nM	0.2 nM	1 nM
B3	1.9 nM	3.2 nM	0.4 nM	0.2 nM	1.5 nM
B4	0.8 nM	3 nM	0.8 nM	1.3 nM	> 350 nM
B5	2.2 nM	3.2 nM	0.6 nM	0.5 nM	2.1 nM
B6	1 nM	0.6 nM	0.2 nM	0.2 nM	1.1 nM
B7	2.8 nM	4.2 nM	0.3 nM	0.4 nM	2.1 nM
B8	0.8 nM	0.8 nM	0.4 nM	0.2 nM	0.9 nM
B9	2.1 nM	2 nM	0.9 nM	0.4 nM	1.5 nM
B10	> 150 nM	–	> 200 nM	–	–
B11	1.1 nM	0.8 nM	0.4 nM	0.1 nM	0.8 nM
